According to publication doi:10.1101/2025.01.09.632086 (2025):

Key:
Experiment in all cases: ITC
IscU R15A = IscU R15A (E. coli, UniProt P0ACD4 1-128, R15A)
IscU I8K = IscU I8K (E. coli, UniProt P0ACD4 1-128, I8K)
IscU Y11A = IscU Y11A (E. coli, UniProt P0ACD4 1-128, Y11A)

Kd (IscU R15A): 2400 nM
Kd (IscU I8K): 18200 nM
Kd (IscU Y11A): 2700 nM
B1: HscA (natural protein)
chain: MALLQISEPGLSAAPHQRRLAAGIDLGTTNSLVATVRSGQAETLADHEGRHLLPSVVHYQQQGHSVGYDARTNAALDTANTISSVKRLMGRSLADIQQRYPHLPYQFQASENGLPMIETAAGLLNPVRVSADILKALAARATEALAGELDGVVITVPAYFDDAQRQGTKDAARLAGLHVLRLLNEPTAAAIAYGLDSGQEGVIAVYDLGGGTFDISILRLSRGVFEVLATGGDSALGGDDFDHLLADYIREQAGIPDRSDNRVQRELLDAAIAAKIALSDADSVTVNVAGWQGEISREQFNELIAPLVKRTLLACRRALKDAGVEADEVLEVVMVGGSTRVPLVRERVGEFFGRPPLTSIDPDKVVAIGAAIQADILVGNKPDSEMLLLDVIPLSLGLETMGGLVEKVIPRNTTIPVARAQDFTTFKDGQTAMSIHVMQGERELVQDCRSLARFALRGIPALPAGGAHIRVTFQVDADGLLSVTAMEKSTGVEASIQVKPSYGLTDSEIASMIKDSMSYAEQDVKARMLAEQKVEAARVLESLHGALAADAALLSAAERQVIDDAAAHLSEVAQGDDVDAIEQAIKNVDKQTQDFAARRMDQSVRRALKGHSVDEV
